# Laboratory results: the nanobody polyreactivity screen of Harvey et al. (2022)
# Experiment: yeast display, Sf9 membrane polyspecificity reagent, FACS + sequencing; frameworks hold sequencing errors
# Outline: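 Galactose-induced (36–48 hours) yeast carrying a synthetic nanobody display library were exposed to 10% biotinylated, detergent-solubilized Sf9 membrane reagent at 4 °C for 1 hour. FACS followed streptavidin microbead enrichment, using low and high (top ~1%) gates for expression (anti-HA) and reagent binding (streptavidin). Colony PCR, MiSeq 2 × 250 sequencing and CDR-length filtering followed. Labels for polyreactivity reflect the gate of origin.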
row,Sequence,polyreactivity (PSR sort gate)
1,QVQLVESGGGLVQAGGSLRLSCAASGRTFILYTMGWYRQAPGKERELVAAITTGGSTSYADSVKGRVTISRDNAKNTVYLQMNSLKPEDTAVYYCNALSRLRYKPRLYDYWGQGTQVTVSS,low polyreactivity
2,QVQLVESGGGLVQAGGSLRLSCAASGRTFIPYAMGWYRQAPGKERELVAAISYSGGSTYYADSVKGRFTISRDNAKNTVYLQMYSLKPEDTAVYYCNAYYGSYYYDYNYWGQGTQVSVSS,high polyreactivity
3,QVQLVESGGGLVQAGGSLRLSCAASGRTFIRNAMGWYRQAPGKERELVAAISRGGGTYYADSVKGRFTISRDNAKNTVYLQMNSLKPEDTAVYYCAAGFRSPYYWGQGTQVTVSS,high polyreactivity
4,QVQLVESGGGLVQAGGSLRLSCAASGRTFIRNAMGWYRQAPGKERELVASIRRSGGSTYYADSVKGRFTISRDNAKNTVYLQMNSLKPEDTAVYYSAAVHRFLLGYGYWGQGTQVTVSS,high polyreactivity
5,QVQLVESGGGLVQAGGSLRLSCAASGRTFIRYAMGWYRQAPGKESELVAAISSRGGRTHYADSVKGRFTISRDNAKNTVYLQMNSLKPEDTAVYYCAADLTYVTVPGASYDYWGQCTQVTVSS,low polyreactivity
6,QVQLVESGGGLVQAGGSLRLSCAASGRTFIRYAMGWYRQAPGNERELVAAISWSGDRTYYADSVKGRFTISRDNAKNTVYLQMNSLKPEDTAVYYCNAYRYLRTATFLKFDYWGQGTQVTVSS,high polyreactivity
7,QVQLVESGGGLVQAGGSLRLSCAASGRTFIRYTTGWYRQAPGTERELVAAITSTGRTYYADSVKGRFTISRDNAKNTVYLQMNSLKPEDTAVYYCAAEAGYGDYYYGYDYWGQGTQVTVSS,low polyreactivity
8,QVQLVESGGGLVQAGGSLRLSCAASGRTFISNVIGWYRKAPGKERDLVAAITWRGGRTHYADSVKGRFTISRDNAKITVYLQMNSLKPEDTAVYYCAARYIPIQYPSYRTWGGYSWGQGTQVTVSS,high polyreactivity
9,QVQLVESGGGLVQAGGSLRLSCAASGRTFISYAMGWYRQAPGKERELVAGISRGGSTYYADSVKGRFTISRDNAKNTVYLQMNSLKPEDTAVYYCAARRWISSHSYKYGYWGQGTQVTVSS,high polyreactivity
10,QVQLVESGGGLVQAGGSLRLSCAASGRTFIVNTMGWYRQAPGKERELVAAITARGGRTYYADSVKGRFTISRDNAKNTVYLQMNSLKPEDTAVYYCNARTPPREAERYYWGQGTQVTVSS,low polyreactivity
11,QVQLVESGGGLVQAGGSLRLSCAASGRTFIVYAMGWYRQAPGKERELVAAISGRGGGNTYYADSVKGSFTISRDNAKNTVYLQMNSLKPEDTAVYYCAADTYSWYSYRDYYYWGQGTQVTVSS,low polyreactivity
12,QVQLVESGGGLVQAGGSLRLSCAASGRTFIVYAMGWYRQAPGKERELVARISSGSRTSYADSVKGRFTISRDNAKNTVYLQMNSLKPEDTAVYYCAKSRVIKYEFDYWGQGTQVTVSS,low polyreactivity
13,QVQLVESGGGLVQAGGSLRLSCAASGRTFIYNTMGWYRQAPGKERELVAAITSGGSTNYADSVKGRFTISRDNAKNTVYLQMNSLKPEDTAVYYCATQGLSAPFDGFVNSRFDHWGQGTQVTVSS,low polyreactivity
14,QVQLVESGGGLVQAGGSLRLSCAASGRTFKAYAMGWYRQAPGKERELVAGISWSGGNTYYADSVKGRFTISRDNAKNTVYLQMNSLKPEDTAVYYCAASLGGLWEDDYWGQGTQVTVSS,high polyreactivity
15,QVQLVESGGGLVQAGGSLRLSCAASGRTFKDYAMGWYRPAPGKERELVAAISWSGGDTYYADSVKGRFTISRDNAKNTVYLQMNSLKPEDTAVYYCNADPSGVFFYSLEFDYWGQGTQVTVSS,low polyreactivity
16,QVQLVESGGGLVQAGGSLRLSCAASGRTFKGNAMGWYRQAPGKEIELVAAISKSGGRTYYADSVKGRFTISRDNAKNTVYLQMNSLKPEDTAVYYCAVDVGPTKVRFGYLGQGTQVTVSS,high polyreactivity
17,QVQLVESGGGLVQAGGSLRLSCAASGRTFKGYAMGWYRQAPGKERELVAAISYRGGSTYYADSVKGRFTISRDKAKKTFYLQMNSLKPEDTAVYYCAADIQPYVYDGYPVGMDYWGQGTQVTVSS,high polyreactivity
18,QVQLVESGGGLVQAGGSLRLSCAASGRTFKHYAMGWYRPAPGKERELVATITNTGGRTNYADSVKGRFTISRDNAKNTVYLQMYSLKPEDTAVYYCNRVNDYYRPGGRPFGIFDYWGQGTQVTVSS,low polyreactivity
19,QVQLVESGGGLVQAGGSLRLSCAASGRTFKKYAMGWYRQAPGKERELVAAISWSGGTTYYADSVKGRFTISRDNAKNTVYLQMNSLKPEDTAVYYCAARVSRTGHGYYYFWGQGTQVTVSS,high polyreactivity
20,QVQLVESGGGLVQAGGSLRLSCAASGRTFKKYAMGWYRQAPGKERELVAAITGSGGSTYYADSVKVRYTISRDNAKNTVYLQMNSLKPEDTAVYYCAAYAYGVGHSQDGGNYWGQCTQVTVSS,low polyreactivity
21,QVQLVESGGGLVQAGGSLRLSCAASGRTFKPYAMGWYRQAPGKERELVAAISSRGTSTNYADSVKGRFTISRDNAKNTVYLQMNSLKPEDTAVYYCNRVLLPGPQYQWGKAYDYWGQGTQVTVSS,high polyreactivity
22,QVQLVESGGGLVQAGGSLRLSCAASGRTFKRYAMGWYRQAPGKERELVAAISWSGTSTHYADSVKGRFTISRDNAKNTVYLQMNSLKPEDTAVYYCAARRYPVLNYDYWGQGTQVNVSS,high polyreactivity

row,Sequence,polyreactivity (PSR sort gate)
1,QVQLVESGGGLVQAGGSLRLSCAASGRTFKSNAMRWYRQAPGKERELVATISRGGGSTYYADSVKGRFTISRDNAKNTVYLQMNSLKPEDTAVYYCAIGSNSYLRYHYTYPYDYWGQGTQVTVSS,high polyreactivity
2,QVQLVESGGGLVQAGGSLRLSCAASGRTFKSYAMGWYRQAPGKERELVAAISRSSGSTYYADSVKGRFTISRDNAKNTVYLQMNSLKPEDTAVYYCATTKRVGYNYWGQGTQVTVSS,high polyreactivity
3,QVQLVESGGGLVQAGGSLRLSCAASGRTFKSYTLGWYRQAPGKEREFVAAISSRGGNTYYADSVNGRFTISRDNAKNTVYLQMNSLKPEDTAVYYSAAESSFWSFPTYDYWGQGTQVTVSS,high polyreactivity
4,QVQLVESGGGLVQAGGSLRLSCAASGRTFKTYARGWYREAPGKERELVAAISRDGRTYYADSVKGRFTISRDNAKNTVYLQRNSLKPEDTAVYYCAVGIYDHLYNHEYWGQGTQVTVSS,low polyreactivity
5,QVQLVESGGGLVQAGGSLRLSCAASGRTFKTYTMGWYRQEPGKERELVAVISSGGGSTNYADSVKGRFTISRDNAKNTVYLQMNSLKPEDTAVYYCAARKTGRPKYRYDYWGQGTQVTVSS,low polyreactivity
6,QVQLVESGGGLVQAGGSLRLSCAASGRTFKYNAMGWYRQAPGKERELVAAISDRGTRKYYADSVKGRFTISRDNAKNSVYLQMNSLKPEDTAVYYCAARVTGKDRWYIYYWGQGTQVTVSS,high polyreactivity
7,QVQLVESGGGLVQAGGSLRLSCAASGRTFKYNAMGWYRQAPGKERELVAVIRYSGGTTYYADSVKGRFTISRDNAKNTVYLQMNSLKPEDTAVYYCNADGPYVLPGWYFRTDNSWGQGTQVTVSS,low polyreactivity
8,QVQLVESGGGLVQAGGSLRLSCAASGRTFKYNAMGWYRQAPGKERELVAVISRSTGRTYYADSVKGRFTISRDNAKNTFYLQMNSLKPEDTAVYSCNRVSRQYYYQRGFEYDYWGQGTQVTVSS,high polyreactivity
9,QVQLVESGGGLVQAGGSLRLSCAASGRTFKYYAMGWYRQAPGKERELVAAINSGGITYYADSVKGRFTISRDNAKNTVYLQMNSLKPEDTAVYYCAKVWKIGVLRYPSYGYYYWGQGTQVTVSS,high polyreactivity
10,QVQLVESGGGLVQAGGSLRLSCAASGRTFKYYAMGWYRQAPGKERELVAAITSTGGSTYYADSVKGRFTISRDNAKNTVYLQMHSLKPEDTAVYYCNRYTQYRDRSDNHWGQGTQVTVSS,high polyreactivity
11,QVQLVESGGGLVQAGGSLRLSCAASGRTFLGYAMGWSRQAPGKERELVAAISTGGGRTYYADSVKGRFTISRDNAKNTVYLQMNSLKPEDTAVYYCATVPRHGAPTTFNYWGQGTQVTVSS,high polyreactivity
12,QVQLVESGGGLVQAGGSLRLSCAASGRTFLGYAMGWYRQAPGKERELVAAISSSGGSTYYADSVKGRVTISRDNAKNTVYFQMNCLKPEDTAVYYCAKRKRATGASGHGFGYWGQGTQVTVSS,high polyreactivity
13,QVQLVESGGGLVQAGGSLRLSCAASGRTFLINAMGWYRQAPGKEREMVAAITQSGGSTYYADSVKGRFTISRDNAKYTVYLQMNSLKPEDTAVYNCNATPDSVRWDYALSVVRYEYWGQGTQVTVSS,low polyreactivity
14,QVQLVESGGGLVQAGGSLRLSCAASGRTFLINSMGWYRQAPGKERELVAGITRNGGTTYYADSVKGRFTISRDNAKNTVYLQMNSLKPEDTAVYYCAKRYPSWFNYWGQGTQVTVSS,high polyreactivity
15,QVQLVESGGGLVQAGGSLRLSCAASGRTFLIYAMGWYRQAPGKERELVAAITNGVDSTYYADSVKGRFTISRDNAKNTVYLQMNSLKPEDTAVYYCNADTVVEWYSPSREYDYWGQGTQVTVSS,low polyreactivity
16,QVQLVESGGGLVQAGGSLRLSCAASGRTFLIYAMGWYRQAPGKERELVAGITRGSTTYADSVKGRFTISRDNAKNTVYLQMNSLKPEDTAVYYCAARNYSVATYGEYDDWGQGTQVTVSS,high polyreactivity
17,QVQLVESGGGLVQAGGSLRLSCAASGRTFLIYAMGWYRQAPGKETEFVAAIRGRGGSTYYADSVKGRFTISRDNAKNTVYFQMNCLKPVDTAVYYCAATFPGRSYRIRGYGYDYWGQGTQVTVSS,high polyreactivity
18,QVQLVESGGGLVQAGGSLRLSCAASGRTFLLNAMGWYRQAPGKERELVAAISRGGSTYYADSVKGRFTISRDNAKNTVYLQMNSLKPEDTAVYYCAARFWISHTHWDAGDYWGQGTQVTVSS,low polyreactivity
19,QVQLVESGGGLVQAGGSLRLSCAASGRTFLLYAMGWYRQAPGKERELVARITGRGGRTYYADSVKGRFTISRDNAKNTVYLQMNSLKPEDTAVYYCNKRYPLGTEYYYWGQGTQVTVSS,high polyreactivity
20,QVQLVESGGGLVQAGGSLRLSCAASGRTFLRYAMGWSRQAPGTETELVAAISSDGSTNYADSVKGRFTISRDNAKNTVYLQMNSLKPEDTAVYYCDADPQKWYTGYDYWGQGTQVTVSS,low polyreactivity
21,QVQLVESGGGLVQAGGSLRLSCAASGRTFLRYAMGWYREAPGKERELVAAITYGGRTNFADSVKGRFTISRDNAKNTVYFQMNSLKPEDTAVYYCAADRTYYYGLRVDYWGQGTQVTVSS,high polyreactivity
